Target: phospho His-cSrcKD-K295M/Y416F (human)
Assay: BLI

Kd | kon | Substance
257 µM | 128 M⁻¹ s⁻¹ | rPTPεD1-C335S/R220E (domain or fragment)
34 µM | 998 M⁻¹ s⁻¹ | rPTPεD1-C335S (D1 domain of receptor protein tyrosine phosphatase epsilon, substrate-trapping mutant) (domain or fragment)

Source: publication doi:10.1101/2021.01.13.426511
